Data as given in PMC4937327.
Like-named read-outs stand apart in the source and are kept apart here.

Experiments:
[1] = biological target: PtAUREO1c (aureochrome 1c from Phaeodactylum tricornutum), full length (Phaeodactylum tricornutum); assay: MST
[2] = biological target: PtAUREO1a bZIP-A′α-LOV-Jα functional module (residues D145-D378) (Phaeodactylum tricornutum); assay: SAXS
[3] = biological target: PtAUREO1a bZIP-A′α-LOV-Jα functional module (residues D145-D378) (Phaeodactylum tricornutum); assay: SEC
[4] = biological target: PtAUREO1a bZIP-A′α-LOV-Jα functional module (residues D145-D378) (Phaeodactylum tricornutum); assay: SEC; remark: listed apart in the source
[5] = biological target: PtAUREO1a bZIP-A′α-LOV-Jα functional module (residues D145-D378) (Phaeodactylum tricornutum); assay: MST
[6] = biological target: PtAUREO1a bZIP-A′α-LOV-Jα functional module (residues D145-D378) (Phaeodactylum tricornutum); assay: MST; remark: listed apart in the source

Substance	Kd [1]	stoichiometry N [2]	stoichiometry N [3]	stoichiometry N [4]	Kd [5]	Kd [6]
PtAUREO1a (aureochrome 1a from Phaeodactylum tricornutum), full length (natural protein)	240 nM	–	–	–	–	–
PtAUREO1a bZIP-A′α-LOV-Jα functional module (residues D145-D378) (domain or fragment)	450 nM	2	2	2	240 to 280 nM	–
dsDNA/bZIP-A′α-LOV-Jα complex (PtAUREO1a bZIP-A′α-LOV-Jα dimer bound to dsDNA)	–	–	–	–	800 nM	2600 nM
